Experimental data taken from patent US8614103B2, “Compositions and methods for treating sphingosine-1-phosphate (S1P) related ocular diseases and conditions” (Lpath, Inc., priority 2006, dated 2013).

Experiments:
perivascular fibrosis = test: Permanent myocardial infarction model, perivascular fibrosis; assay type: in vivo, mouse; conditions: 25 mg/kg from 48 hrs after surgery; two weeks
Procedure: Studies evaluated the efficacy of SPHINGOMAB to reduce cardiac scar formation after permanent myocardial infarction (MI) via ligation of the left descending coronary artery in mice. Systemic administration of 25 mg/kg SPHINGOMAB or saline was initiated 48 hrs after surgery. Antibody administration at 48 hr. was chosen to allow normal, reparative scar formation to occur during the early remodeling phase and permit beneficial, S1P-stimulated angiogenesis immediately after the MI. Two weeks after the infarct, mice were sacrificed and fibrosis was accessed by Masson's trichrome staining of the cardiac tissue. […] As a control for any non-specific wound-healing responses, sham animals underwent thoracotomy without coronary artery ligation (FIG. 7E).

HUVECs = test: HUVEC migration, Matrigel chemoinvasion assay; assay type: cell-based, human; conditions: co-incubation with S1P
Procedure: FIG. 5 has two panels, A and B. In panel A, S1P is shown to promote neovascularization through induction of HUVECs tube formation and migration, which is reduced by SPHINGOMAB. […] The number of cells that migrated to the Matrigel membrane were counted in five independent fields.
Experiments were performed as described by Visentin et al. (Cancer Cell 2006 March; 9(3):225-38).

[1] = tested on: endothelial cell (EC) infiltration; test: In vivo Matrigel plug assay, S1P plugs, EC infiltration; parameters: species or system mouse; conditions: systemic administration every 48 hrs
Procedure: Based on in vivo studies showing that S1P increased endothelial capillary growth into subcutaneously implanted Matrigel plugs, we speculated that SPHINGOMAB could reduce de novo BV formation in vivo. To investigate this, we employed the in vivo Matrigel Plug assay for neovascularization. In one set of experiments, Matrigel was supplemented with either 1 μM S1P, 0.5 μg/mL bFGF or 1 μg/mL VEGF and then […]. into mice (n=4). After 10 days, the mice were heparinized and injected with the fluorescent lectin, Isolectin B4-FITC, which binds to adhesion molecules expressed by vascular EC that form the growing BVs. The plugs were then excised, frozen in OCT, sectioned and viewed for FITC-stained BVs.
Sections of the plugs were then stained with hemotoxyln & eosin for evaluation of EC infiltration (FIG. 6B). The infiltration of ECs is a critical step in neo-vascularization. […] Cell infiltration is presumed to be ECs although we recognize that other cell types such as immune cells may also be stained.

[2] = Stability after thermochallenge (TM); assay type: physicochemical; conditions: thermochallenge of supernatants
Procedure: The humanized variants were tested for stability after challenge at high temperature. The approximate midpoints of the thermal unfolding transitions (TM) were determined for every humanized variant by subjecting the supernatants to temperatures ranging from 60 to 74° C. These temperatures were chosen based on the denaturation profile observed for the murine antibody molecule after thermochallenging between a broad range of temperatures between 50 and 80° C. The binding properties of each variant were determined before and after thermochallenge.

[3] = tested on: VEGF- or bFGF-induced neovascularization; test: In vivo Matrigel plug assay, VEGF or bFGF plugs, neovascularization; parameters: species or system mouse; conditions: 25 mg/kg i.p. every 48 hrs, 10 days
Procedure: Endogenous S1P from the blood and surrounding tissue could supply a wound with pro-angiogenic stimuli. The ability of SPHINGOMAB to reduce endogenous S1P in a wound was investigated. Optimally stimulated plugs (Matrigel supplemented with 0.5 μg/mL bFGF or […] VEGF) were implanted into mice. Mice received i.p. injections of 25 mg/kg SPHINGOMAB or saline every 48 hrs starting 1 day prior to Matrigel implantation. Each treatment group (Matrigel, Matrigel plus GF or Matrigel plus GF and administered SPHINGOMAB) consisted of a minimum of 6 mice. After 10 days, the mice were treated with heparin, injected with Isolectin B4-FITC, the plugs excised, embedded in OCT freezing medium and sectioned.

[4] = tested on: fibroblasts (Swiss 3T3, cardiac fibroblasts, WI-38); test: S1P-stimulated fibroblast proliferation, migration, collagen expression, myofibroblast differentiation; assay type: cell-based; conditions: 1 μg/mL antibody; 0.1-1 μM S1P
Procedure: See Example 7, below, for experimental details. […] In these experiments, fibroblasts were serum-starved and then treated with 0, 0.1, 0.5, or 1 μM S1P+/−1 μg/mL SPHINGOMAB for 12-24 hr. […] SPHINGOMAB neutralized each of these S1P effects. SPHINGOMAB reduced perivascular fibrosis in vivo in a murine model of a permanent myocardial infarction (E).
S1P makes profound contributions to wound healing by activating fibroblast migration, proliferation and collagen production; SPHINGOMAB neutralizes these effects. Several studies using multiple types of fibroblasts confirm S1P's ability to promote wound healing: 1) S1P increased Swiss-3T3 fibroblast proliferation as measured by ^3H-thymidine incorporation using standard methods (FIG. 7A); 2) S1P promoted the migration of cardiac fibroblasts in a standard scratch wound healing assay. […] In each of these assays, SPHINGOMAB neutralized S1P's. It is anticipated that ocular fibroblasts would respond similarly to S1P and SPHINGOMAB.

B1: LT1002: murine monoclonal antibody to S1P, IgG1 kappa, hybridoma clone 306D326.26 (antibody, listed as Mus sp., V domains shown)
VH: QAHLQQSDAELVKPGASVKISCKVSGFIFIDHTIHWMKQRPEQGLEWIGCISPRHDITKYNEMFRGKATLTADKSSTTAYIQVNSLTFEDSAVYFCARGGFYGSTIWFDFWGQGTTLTVS
VL: ETTVTQSPASLSMAIGEKVTIRCITTTDIDDDMNWFQQKPGEPPNLLISEGNILRPGVPSRFSSSGYGTDFLFTIENMLSEDVADYYCLQSDNLPFTFGSGTKLEIK
- perivascular fibrosis after MI (perivascular fibrosis): almost complete abrogation of perivascular fibrosis
- effect on S1P-promoted HUVEC migration and BV formation (HUVECs): neutralize these effects of S1P
- EC infiltration into S1P Matrigel plugs [1]: reduced amount of EC infiltration
- TM (approximate midpoint of the thermal unfolding transition) [2]: 65 °C
- decrease in neovascularization of VEGF-containing plugs vs saline-treated [3]: 5 fold
- decrease in neovascularization of bFGF-containing plugs vs saline-treated ([3]; 0.5 μg/mL bFGF): 8.5 fold
- effect on S1P-stimulated fibroblast proliferation, migration, collagen expression, myofibroblast differentiation [4]: neutralized
